{
  "source": "patent US8541376B2",
  "about": "“Composition comprising and method of using angiopoietin-like protein 3 ANGPTL3” (Genentech, Inc., priority 2001, dated 2013)",
  "molecules": {"B1": {"name": "ARP1: angiopoietin related protein 1, unable to bind Tie2, negative control (protein, UniProt O95841 24-491, looked up)", "Angiopoietin-related protein 1": "GQFKIKKINQRRYPRATDGKEEAKKCAYTFLVPEQRITGPICVNTKGQDASTIKDMITRMDLENLKDVLSRQKREIDVLQLVVDVDGNIVNEVKLLRKESRNMNSRVTQLYMQLLHEIIRKRDNSLELSQLENKILNVTTEMLKMATRYRELEVKYASLTDLVNNQSVMITLLEEQCLRIFSRQDTHVSPPLVQVVPQHIPNSQQYTPGLLGGNEIQRDPGYPRDLMPPPDLATSPTKSPFKIPPVTFINEGPFKDCQQAKEAGHSVSGIYMIKPENSNGPMQLWCENSLDPGGWTVIQKRTDGSVNFFRNWENYKKGFGNIDGEYWLGLENIYMLSNQDNYKLLIELEDWSDKKVYAEYSSFRLEPESEFYRLRLGTYQGNAGDSMMWHNGKQFTTLDRDKDMYAGNCAHFHKGGWWYNACAHSNLNGVWYRGGHYRSKHQDGIFWAEYRGGSYSLRAVQMMIKPID"}, "B2": {"name": "Angptl3: angiopoietin-like protein 3, native human sequence SEQ ID NO: 2; recombinant gD-tagged secreted glycoprotein (protein, listed as Homo sapiens)", "chain": "MFTIKLLLFIVPLVISSRIDQDNSSFDSLSPEPKSRFAMLDDVKILANGLLQLGHGLKDFVHKTKGQINDIFQKLNIFDQSFYDLSLQTSEIKEEEKELRRTTYKLQVKNEEVKNMSLELNSKLESLLEEKILLQQKVKYLEEQLTNLIQNQPETPEHPEVTSLKTFVEKQDNSIKDLLQTVEDQYKQLNQQHSQIKEIENQLRRTSIQEPTEISLSSKPRAPRTTPFLQLNEIRNVKHDGIPAECTTIYNRGEHTSGMYAIRPSNSQVFHVYCDVISGSPWTLIQHRIDGSQNFNETWENYKYGFGRLDGEFWLGLEKIYSIVKQSNYVLRIELEDWKDNKHYIEYSFYLGNHETNYTLHLVAITGNVPNAIPENKDLVFSTWDHKAKGHFNCPEGYSGGWWWHDECGENNLNGKYNKPRAKSKPERRRGLSWKSQNGRLYSIKSTKMLIHPTDSESFE", "modifications": "gD tag", "notes": "recombinant gD-tagged secreted glycoprotein"}, "B3": {"name": "Ang1: epitope (gD)-tagged Tie2 ligand angiopoietin 1 (protein, listed as Homo sapiens)", "chain": "RDCADVYQAGFNKSGIYTIYINNMPEPKKVFCNMDVNGGGWTVIQHREDGSLDFQRGWKEYKMGFGNPSGEYWLGNEFIFAITSQRQYMLRIELMDWEGNRAYSQYDRFHIGNEKQNYRLYLKGHTGTAGKQSSLILHGADFSTKDADNDNCMCKCALMLTGGWWFDACGPSNLNGMFYTAGQNHGKLNGIKWHYFKGPSYSLRSTTMMIRPLDF", "modifications": "gD epitope tag"}, "B4": {"name": "murine Angptl3: recombinant mouse Angptl3 overexpressed in CHO cells (protein, UniProt Q9R182 17-455, looked up)", "Angiopoietin-related protein 3": "SRVDPDLSSFDSAPSEPKSRFAMLDDVKILANGLLQLGHGLKDFVHKTKGQINDIFQKLNIFDQSFYDLSLRTNEIKEEEKELRRTTSTLQVKNEEVKNMSVELNSKLESLLEEKTALQHKVRALEEQLTNLILSPAGAQEHPEVTSLKSFVEQQDNSIRELLQSVEEQYKQLSQQHMQIKEIEKQLRKTGIQEPSENSLSSKSRAPRTTPPLQLNETENTEQDDLPADCSAVYNRGEHTSGVYTIKPRNSQGFNVYCDTQSGSPWTLIQHRKDGSQDFNETWENYEKGFGRLDGEFWLGLEKIYAIVQQSNYILRLELQDWKDSKHYVEYSFHLGSHETNYTLHVAEIAGNIPGALPEHTDLMFSTWNHRAKGQLYCPESYSGGWWWNDICGENNLNGKYNKPRTKSRPERRRGIYWRPQSRKLYAIKSSKMMLQPTT"}},
  "key": {"HMVEC": {"tested_on": "HMVEC", "assay": "endothelial cell adhesion assay on Angptl3-coated plates", "format": "cell-based, human", "method": "(§1) In order to identify potential integrins binding to Angptl3, recombinant Angptl3 proteins were coated onto 96-well flat-bottomed microtiter plates (MaxiSorp, Nunc, Denmark) overnight at 4° C. and blocked with 100 μg/ml BSA in PBS for 1 hour at 37° C. Various 293 cell lines stably transfected with different integrin heterodimers, including IIbIIIa (αIIBβ3), αvβ3, αvβ1 and αvβ5, were tested for their ability to bind Angptl3 coated plates. Cells were harvested and diluted to 10^5 cells/ml in serum-free CS-C medium containing 1% BSA, 1 mM CaCl2 and 1 mM MgCl2. Cells were preincubated with or without blocking antibodies or peptides for 15 minutes at 37° C. and then stimulated with 200 nM PMA. Cell suspensions (10^4 cells/well) were added to the coated wells and the plates were incubated at 37° C. for selected times. Non-adherent cells were removed by PBS washes and cell attachment was measured using the PNAG method of Lanndegren (Landegren, U., J. Immunol. Methods, 67:379-388 (1984)). Results are expressed at mean OD405 values of triplicate wells.\nTo determine whether the αvβ3 integrin was sufficient to mediate Angptl3 cell adhesion, blocking antibodies or inhibitory peptides were tested for their ability to inhibit the adhesion in the cell adhesion assay. Function blocking antibodies were added to the endothelial cells prior to incubation with the Angptl3-coated wells. […]"}, "Tie2 receptor": {"molecular_target": "T1, Tie2 receptor (Homo sapiens, UniProt Q02763)", "T1 construct": "in conjunction with full length receptor constructs for Tie1 and Tie2, respectively; expressed in transfected cells; host or cells: 293 cells (transient transfection)", "T1 sequence (Q02763 23-1124)": "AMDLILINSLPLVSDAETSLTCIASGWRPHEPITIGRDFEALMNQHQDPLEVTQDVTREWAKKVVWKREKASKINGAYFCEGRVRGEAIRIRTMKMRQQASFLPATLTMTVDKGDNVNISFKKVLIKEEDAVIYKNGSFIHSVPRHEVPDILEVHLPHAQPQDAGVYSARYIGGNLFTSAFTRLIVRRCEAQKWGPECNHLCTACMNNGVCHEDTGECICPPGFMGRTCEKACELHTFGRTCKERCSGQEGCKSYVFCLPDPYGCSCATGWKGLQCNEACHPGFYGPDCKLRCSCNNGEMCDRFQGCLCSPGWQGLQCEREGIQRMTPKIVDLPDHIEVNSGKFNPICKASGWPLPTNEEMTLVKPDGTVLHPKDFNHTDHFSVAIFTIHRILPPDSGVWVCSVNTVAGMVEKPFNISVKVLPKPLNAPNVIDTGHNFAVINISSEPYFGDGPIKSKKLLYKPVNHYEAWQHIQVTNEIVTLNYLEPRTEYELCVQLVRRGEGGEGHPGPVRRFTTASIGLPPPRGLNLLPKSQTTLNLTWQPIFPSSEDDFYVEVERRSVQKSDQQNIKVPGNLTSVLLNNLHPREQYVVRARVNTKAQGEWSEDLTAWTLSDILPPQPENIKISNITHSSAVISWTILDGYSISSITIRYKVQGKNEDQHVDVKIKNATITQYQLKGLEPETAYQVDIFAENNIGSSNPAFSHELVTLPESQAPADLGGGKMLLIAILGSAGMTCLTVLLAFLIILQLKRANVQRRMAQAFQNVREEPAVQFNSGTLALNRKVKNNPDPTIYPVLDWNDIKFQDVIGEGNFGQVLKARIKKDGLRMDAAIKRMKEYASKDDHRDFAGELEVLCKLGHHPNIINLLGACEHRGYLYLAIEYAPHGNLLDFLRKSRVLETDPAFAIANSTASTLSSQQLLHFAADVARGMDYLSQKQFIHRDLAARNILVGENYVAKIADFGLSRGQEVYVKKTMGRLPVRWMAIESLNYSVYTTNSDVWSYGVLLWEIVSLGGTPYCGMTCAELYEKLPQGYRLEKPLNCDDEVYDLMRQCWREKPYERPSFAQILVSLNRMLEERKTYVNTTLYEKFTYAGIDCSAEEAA", "assay": "co-immunoprecipitation in cotransfected 293 cells", "format": "binding", "details": "immunoprecipitation with anti-Tie2, anti-gD blot", "method": "(§2) To test whether Tie2, the receptor for angiopoetins 1, 2 and 3 (Ang1, Ang2, and Ang3), or Tie1, an orphan receptor with high sequence homology to Tie2, bind to Angptl3, immunoprecipitation experiments were conducted using 293 cells transiently with expression vectors for epitope (gD)-tagged versions of Ang1 and Ang2, Angptl3 and ARP1 in conjunction with full length receptor constructs for Tie1 and Tie2, respectively. Whole cell extracts were prepared by lysis in RIPA buffer (1×PBS; 1% NP40; 0.5% sodium deoxycholate; 0.1% SDS; PMSF, 100 μg/ml; Aprotinin, 30 μl/ml; sodium orthovanadate, 1 μM) containing freshly added protease inhibitors. Extract was incubated with antibodies specific for Tie1 or Tie2 (Santa Cruz Biotechnology, San Diego, Calif.) and the resulting immunoprecipitate was analyzed by SDS-PAGE and immunoblotting. Specifically, proteins resolved by SDS-PAGE and blotted to PVDF membrane were incubated with antibodies against the gD tag or the Tie receptors, respectively."}, "[1]": {"tested_on": "Human microvascular endothelial cells (HMVECs)", "assay": "FACS binding of gD-tagged ligands in conditioned media to endothelial cells", "details": "for binding to HMVEC: conditioned media from transfected 293 cells, gD-tagged ligands, FACS", "method": "Because of the structural similarities between Angptl3 and angiopoietins, Angptl3 was tested for the ability to bind, in culture, to primary endothelial cells expressing the Tie2 receptor. Human microvascular endothelial cells (HMVECs), purchased from Cell System (Kirkland, Wash.), maintained in CS-C complete medium containing 10% fetal bovine serum and mitogens according to the recommendations by the supplier, were incubated with conditioned media from transiently transfected 293 cells expressing epitope (gD)-tagged versions of Tie2 ligands angiopoietin 1 and 2 (Ang1 and Ang2), Angptl3, and angiopoietin related protein 1 (ARP1), respectively. ARP1 is a structurally related molecule, consisting of a coiled-coil and a fibrinogen-like domain but unable to bind Tie2, and was used as a negative control."}, "Mac-1": {"molecular_target": "Mac-1 (Homo sapiens, UniProt P05107+P11215)", "sequence (P05107 23-769, other chains not shown)": "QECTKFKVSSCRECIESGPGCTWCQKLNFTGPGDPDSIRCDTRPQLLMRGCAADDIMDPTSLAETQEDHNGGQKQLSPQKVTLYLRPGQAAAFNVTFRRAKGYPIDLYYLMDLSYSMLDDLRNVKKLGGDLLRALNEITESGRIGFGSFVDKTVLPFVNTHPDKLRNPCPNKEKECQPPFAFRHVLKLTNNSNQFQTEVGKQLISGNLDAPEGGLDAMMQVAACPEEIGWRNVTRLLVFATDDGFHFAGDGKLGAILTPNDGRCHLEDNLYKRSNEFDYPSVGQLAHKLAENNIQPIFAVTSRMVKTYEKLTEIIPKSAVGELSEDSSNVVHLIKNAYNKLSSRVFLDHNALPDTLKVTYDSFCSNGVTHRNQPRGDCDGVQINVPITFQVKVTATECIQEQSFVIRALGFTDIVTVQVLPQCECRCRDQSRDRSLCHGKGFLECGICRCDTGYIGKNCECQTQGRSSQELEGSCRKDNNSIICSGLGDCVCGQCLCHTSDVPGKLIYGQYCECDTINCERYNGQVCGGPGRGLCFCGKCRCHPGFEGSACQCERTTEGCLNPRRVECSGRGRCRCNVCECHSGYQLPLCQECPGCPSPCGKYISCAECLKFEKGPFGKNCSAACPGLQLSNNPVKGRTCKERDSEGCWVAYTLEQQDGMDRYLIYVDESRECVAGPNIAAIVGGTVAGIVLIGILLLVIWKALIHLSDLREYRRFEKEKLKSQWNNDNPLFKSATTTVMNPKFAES", "details": "ELISA in vitro (Camenisch et al., 2002); cited from earlier work"}, "LFA1": {"molecular_target": "LFA1 (Homo sapiens, UniProt P05107+P20701)", "details": "ELISA in vitro (Camenisch et al., 2002); cited from earlier work"}, "Tie1 receptor": {"molecular_target": "T2, Tie1 receptor (Homo sapiens, UniProt P35590)", "T2 construct": "in conjunction with full length receptor constructs for Tie1 and Tie2, respectively; expressed in transfected cells; host or cells: 293 cells (transient transfection)", "T2 sequence (P35590 22-1138)": "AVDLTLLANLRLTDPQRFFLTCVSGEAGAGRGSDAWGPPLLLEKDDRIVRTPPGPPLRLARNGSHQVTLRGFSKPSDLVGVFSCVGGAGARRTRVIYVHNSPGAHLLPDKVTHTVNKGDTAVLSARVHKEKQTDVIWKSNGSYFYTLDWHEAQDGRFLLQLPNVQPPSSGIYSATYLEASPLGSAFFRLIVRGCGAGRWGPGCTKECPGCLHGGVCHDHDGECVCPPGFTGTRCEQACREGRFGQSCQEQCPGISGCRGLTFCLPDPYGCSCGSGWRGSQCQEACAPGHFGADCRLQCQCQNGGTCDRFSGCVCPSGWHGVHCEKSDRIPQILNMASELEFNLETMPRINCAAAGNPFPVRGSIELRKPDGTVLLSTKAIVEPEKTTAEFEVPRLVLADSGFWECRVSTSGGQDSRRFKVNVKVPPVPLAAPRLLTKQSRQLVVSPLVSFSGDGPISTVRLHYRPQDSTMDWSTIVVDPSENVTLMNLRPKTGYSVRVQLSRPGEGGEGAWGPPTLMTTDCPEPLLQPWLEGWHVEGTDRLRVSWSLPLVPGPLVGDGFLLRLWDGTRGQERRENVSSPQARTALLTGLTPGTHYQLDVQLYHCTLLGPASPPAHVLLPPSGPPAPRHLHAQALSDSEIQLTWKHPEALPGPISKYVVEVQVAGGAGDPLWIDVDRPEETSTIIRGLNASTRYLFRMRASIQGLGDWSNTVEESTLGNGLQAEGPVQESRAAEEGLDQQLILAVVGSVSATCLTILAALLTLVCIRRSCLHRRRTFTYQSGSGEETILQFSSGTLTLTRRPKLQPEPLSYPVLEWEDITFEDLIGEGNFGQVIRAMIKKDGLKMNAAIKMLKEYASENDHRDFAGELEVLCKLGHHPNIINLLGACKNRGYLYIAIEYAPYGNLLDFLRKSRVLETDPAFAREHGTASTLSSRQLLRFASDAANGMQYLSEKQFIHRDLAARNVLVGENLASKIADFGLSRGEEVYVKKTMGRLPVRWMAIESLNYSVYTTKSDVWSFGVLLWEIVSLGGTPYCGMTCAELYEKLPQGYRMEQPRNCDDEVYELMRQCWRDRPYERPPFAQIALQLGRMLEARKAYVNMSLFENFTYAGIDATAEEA", "assay": "co-immunoprecipitation in cotransfected 293 cells", "format": "binding", "details": "immunoprecipitation with anti-Tie1, anti-gD blot", "method": "as §2"}, "rat cornea": {"tested_on": "rat cornea", "assay": "rat cornea in vivo angiogenesis assay", "details": "for angiogenic response compared to levels obtained for VEGF: Angptl3 500 ng vs VEGF 100 ng", "method": "In order to test whether Angptl3 was capable to induce an in vivo angiogenic response in the rat cornea, […] pellets containing murine and human Angptl3 (500 ng) as well as human VEGF (100 ng) were implanted separately or in combination as described previously (Xin et al., J. Biol. Chem., 274:[…] (1999)). Hydron pellets containing excipient (control, murine or human Angptl3 (500 ng), VEGF (100 ng), or the combination of murine or human Angptl3 (500 ng) and VEGF (100 ng) were implanted into the corneas of 250 to 300 g male Sprague-Dawley rates. All hydron pellets contained 100 ng of sucralfate. […] Corneal whole mounts were made of the enucleated eyes and analyzed for neovascular areas using a computer-assisted image analysis (Image Pro-Plus 2.0, Silver Spring, Md.). In contrast to previous reports focusing on the effects of angiopoietin 1 and 2 when tested in the corneal angiogenesis assay (Asahara et al., Circ. […] These findings might reflect the interdependent signal transduction pathways engaged by both ligands (Byzova et al., Mol. Cell. 6:852-60 (2000))."}, "[2]": {"tested_on": "freshly isolated murine hepatocytes", "assay": "cell adhesion on protein-coated plates, hepatocytes", "format": "cell-based, mouse", "details": "dishes coated with recombinant mAngptl3 (FIG. 13 legend), 200 nM PMA", "method": "96-well flat-bottomed plates (MaxiSorp, Nunc, Denmark) were coated overnight at 4° C. with the indicated concentrations of proteins and blocked with 3% BSA in PBS for 1 hour at 37° C. Primary human dermal endothelial cells (HMVECs) and freshly isolated murine hepatocytes that were prepared from the livers of adult C57/B16 mice using the method described in LeCouter et al (LeCouter et al., 2001) were harvested and diluted to 10^5 cells/ml in serum-free CS-C medium containing 1% BSA, 1 mM CaCl2 and 1 mM MgCl2 in the presence of 200 nM PMA. […] Cell suspensions (10^4 cells/well) were added to the coated wells and the plates were incubated at 37° C. for selected times. Non-adherent cells were removed by PBS washes and cell attachment was measured using the PNAG method of Landegren (Landegren, 1984). Results were expressed at mean OD405 values of triplicate wells."}, "αvβ3 integrin": {"molecular_target": "T3, αvβ3 integrin (Homo sapiens, UniProt P05106+P06756)", "T3 construct": "expressed in transfected cells", "T3 sequence (P06756 31-889 limits assumed)": "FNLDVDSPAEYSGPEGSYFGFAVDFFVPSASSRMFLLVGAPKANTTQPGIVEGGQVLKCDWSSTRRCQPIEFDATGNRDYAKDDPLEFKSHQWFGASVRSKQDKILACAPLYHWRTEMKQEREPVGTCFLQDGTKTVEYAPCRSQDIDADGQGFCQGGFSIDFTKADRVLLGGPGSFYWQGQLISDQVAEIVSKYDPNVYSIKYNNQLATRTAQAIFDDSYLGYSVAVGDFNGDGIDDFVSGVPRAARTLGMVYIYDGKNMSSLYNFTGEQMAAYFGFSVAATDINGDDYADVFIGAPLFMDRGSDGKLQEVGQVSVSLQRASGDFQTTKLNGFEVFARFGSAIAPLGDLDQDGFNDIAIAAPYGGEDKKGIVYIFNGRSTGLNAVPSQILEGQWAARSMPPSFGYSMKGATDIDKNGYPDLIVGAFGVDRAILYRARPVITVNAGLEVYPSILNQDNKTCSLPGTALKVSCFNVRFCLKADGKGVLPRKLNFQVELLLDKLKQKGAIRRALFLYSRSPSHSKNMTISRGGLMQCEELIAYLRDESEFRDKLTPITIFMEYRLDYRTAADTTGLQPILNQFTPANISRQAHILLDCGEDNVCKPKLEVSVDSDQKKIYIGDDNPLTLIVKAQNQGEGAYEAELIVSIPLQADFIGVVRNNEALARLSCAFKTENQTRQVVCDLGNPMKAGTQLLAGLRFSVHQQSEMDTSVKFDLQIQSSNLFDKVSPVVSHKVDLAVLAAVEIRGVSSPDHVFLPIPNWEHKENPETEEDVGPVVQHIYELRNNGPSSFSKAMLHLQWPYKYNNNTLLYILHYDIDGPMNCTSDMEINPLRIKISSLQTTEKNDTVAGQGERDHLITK", "T3 sequence (P06756 891-1048 limits assumed)": "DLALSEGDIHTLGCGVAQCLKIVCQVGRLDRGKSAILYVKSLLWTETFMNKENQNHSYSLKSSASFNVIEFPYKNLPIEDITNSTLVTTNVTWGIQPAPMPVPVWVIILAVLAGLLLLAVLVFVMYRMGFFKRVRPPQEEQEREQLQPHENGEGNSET", "T3 sequence (P05106 27-788)": "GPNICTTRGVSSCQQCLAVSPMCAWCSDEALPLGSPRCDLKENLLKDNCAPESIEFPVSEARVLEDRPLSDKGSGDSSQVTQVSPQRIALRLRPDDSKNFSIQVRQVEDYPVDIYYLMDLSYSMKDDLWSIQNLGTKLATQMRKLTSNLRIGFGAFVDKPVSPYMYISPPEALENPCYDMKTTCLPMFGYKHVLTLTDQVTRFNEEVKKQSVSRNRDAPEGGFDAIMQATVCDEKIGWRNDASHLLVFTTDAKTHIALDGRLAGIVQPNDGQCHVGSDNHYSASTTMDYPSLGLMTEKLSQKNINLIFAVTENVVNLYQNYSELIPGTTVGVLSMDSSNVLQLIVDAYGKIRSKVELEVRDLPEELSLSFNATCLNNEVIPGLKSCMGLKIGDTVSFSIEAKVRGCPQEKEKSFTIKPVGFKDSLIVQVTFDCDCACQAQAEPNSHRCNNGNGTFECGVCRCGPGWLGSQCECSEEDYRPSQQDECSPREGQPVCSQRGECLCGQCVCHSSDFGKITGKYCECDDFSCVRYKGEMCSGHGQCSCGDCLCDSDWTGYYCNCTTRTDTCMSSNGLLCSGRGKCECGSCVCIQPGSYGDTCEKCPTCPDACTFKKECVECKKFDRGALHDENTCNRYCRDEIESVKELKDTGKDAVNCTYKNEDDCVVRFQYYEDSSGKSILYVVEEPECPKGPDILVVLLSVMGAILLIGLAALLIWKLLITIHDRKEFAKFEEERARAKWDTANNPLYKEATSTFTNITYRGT", "assay": "adhesion of integrin-transfected 293 cell lines to Angptl3-coated plates", "format": "cell-based", "details": "plates coated with 20 μg/ml hAngptl3, 4 hours; compared to cell lines expressing αIIbβ3, αvβ1, αvβ5", "method": "as §1"}},
  "data": [
    {"molecule": "O=C(O)CN(CCN(CC(=O)O)CC(=O)O)CC(=O)O", "note": "[EDTA, reference compound]", "values": [
      {"measurement": "effect of EDTA on endothelial cell adhesion to Angptl3", "setting": "HMVEC; EDTA 10 mM", "result": "completely abolished"}
    ]},
    {"molecule": "Ang2: epitope (gD)-tagged Tie2 ligand angiopoietin 2 [reference compound]", "values": [
      {"measurement": "binding to Tie2", "setting": "Tie2 receptor", "result": "Tie2 binding"},
      {"measurement": "binding to HMVEC", "setting": "[1]", "result": "strongly bound"}
    ]},
    {"molecule": "B1", "values": [
      {"measurement": "binding to HMVEC", "setting": "[1]", "result": "no binding was observed"}
    ]},
    {"molecule": "B2", "values": [
      {"measurement": "binding to Mac-1", "setting": "Mac-1", "result": "did not bind"},
      {"measurement": "binding to LFA1", "setting": "LFA1", "result": "did not bind"},
      {"measurement": "binding to Tie1", "setting": "Tie1 receptor", "result": "did not bind"},
      {"measurement": "binding to Tie2", "setting": "Tie2 receptor", "result": "did not bind"},
      {"measurement": "induction of endothelial cell adhesion", "setting": "HMVEC; increasing coating amounts of hAngptl3, within 4 hours", "result": "robust, dose-dependent adhesion"},
      {"measurement": "in vivo angiogenic response in rat cornea", "setting": "rat cornea; 500 ng in hydron pellet, alone, 5 days after pellet implantation", "result": "strong angiogenic response"},
      {"measurement": "angiogenic response compared to levels obtained for VEGF", "setting": "rat cornea", "result": "comparable"},
      {"measurement": "hepatocyte adhesion", "setting": "[2]", "result": "Coating-concentration dependent"},
      {"measurement": "binding to HMVEC after exposure of cells to hypoxia or VEGF", "setting": "[1]; cells exposed to hypoxia or VEGF, data not shown", "result": "significantly increased"},
      {"measurement": "binding to HMVEC", "setting": "[1]", "result": "strongly bound"},
      {"measurement": "adherence of 293 cells expressing αvβ3 to Angptl3", "setting": "αvβ3 integrin", "result": "marked increased"}
    ]},
    {"molecule": "B3", "values": [
      {"measurement": "binding to Tie2", "setting": "Tie2 receptor", "result": "Tie2 binding"}
    ]},
    {"molecule": "B4", "values": [
      {"measurement": "potency in inducing angiogenesis compared to the recombinant human protein", "setting": "rat cornea; 500 ng each", "result": "slightly more potent"},
      {"measurement": "angiogenic response compared to levels obtained for VEGF", "setting": "rat cornea", "result": "comparable"}
    ]}
  ]
}
